This series is described as follows: soluble on expression in E. coli; label from the status in PepcDB or PDB records.
Consider “MSLTTLVNLTPTKEQRKYQEDELIAFLDLQMNTFTANSENNDEAPSLLKKETSFNTDIWIENLFKFGFKKVILTAKLNNGICLWQSNCSKVNINTFSLENNYDDLVKKVSKSCKKFGLKFGIHLTLKDYLTLNLTPEEYDNYYTSQLKELMTNYSQISEVIMDMTSLDEYYDSLDFERYFKVVKEINPKCMISSPIGPDVRWTYYSDIESSKNYFYSSINLDLLKEDFNNEEIRKGNIYGDTWIVGESIYSLSDCLNHNKDSLSNLKHVYNNSLGRNTNLVLVLSPNTDGLLNHNELSLLSDFSKYIKETFSNNLIKGSSILATNSSSSDSYNLIDDYKKSYWIANENAVNPYIEIDFKTITEFNILEIREWIAEGQNVEEFKVYAYNNGWFELYNGTSIGYRHIAKLNNIKTDKIKISFTKYKNPPMINHIGAYLGEGHHHHHH”, for which the “soluble on expression in E. coli” value is given as “soluble”.

With “MGGEDDELKGLLGLPEEETELDNLTEFNTAHNKRISTLTIEEGNLDIQRPKRKRKNSRVTFSEDDEIINPEDVDPSVGRFRNMVQTAVVPVKKKRVEGPGSLGLEESGSRRMQNFAFSGGLYGGLPPTHSEAGSQPHGIHGTALIGGLPMPYPNLAPDVDLTPVVPSAVNMNPAPNPAVYNPEAVNEPKKKKYAKEAWPGKKPTPSLLI”, the “soluble on expression in E. coli” value is “soluble”.

With “MNDRYTNVKIGLEIHVQLSNAGSKLFCGCDSEYRGYKPNTNVCPVCLGLPGALPVPSRRPIVLAIAASMALGCRVPGTVVFTRKHYFYPDLPKNYQITQFEKAGGAPVCMGGVLEYLNTDSWRWERARIRRINLEEDPGKTYYEGSILTSRYALVDYNRSGVPLLEIVTEPDIPSPRHARMLIDYLLLTLEYIGATNPRLEGVFRVDANISIEGGERVEVKNIGSTQDVEKALKFEISRQRLIVERGGKVERETRHWDAERGMTKPLRLKEEEADYLYFPDPDLPPVEITEDMLAEAEKLASKTPGTIYREIESMGVRREIAWSITSTLPAARLFLEAVKLGADPRIAARLVGVDLKGELKEMGKDLYSPNNWPPPQSIAILSNLVARGDYTYDSIKGLVVPKLAANPGSDVKSLLPEKVKDIERLVEEVLNREKRAVQDYLAGKKKALNYLVGQVMRAAKGRALDPRQAREILLRRLSTVKEEDR”, the “soluble on expression in E. coli” value is listed as “soluble”.

On to “MAHHHHHHMTSVIQRLRRIEVEGLENLRNLGGYHTNNSTKTTRWGVVYRSDQLFRVPADVAQMVLVDQLHIRHVYDLRANTEVSAKRYSLPHMQYTSLPIEMSNANRFLKEGENLKQVATAHRFMQEIYREFVRSYAPTMGLIIKGIIDSKASCDNAFLIHCTAGKDRTGWCCYVLLTLLDVMEEEKRSDYLLTNTFVGIPADAWDYDGAEGMGEEAMTALWTVFDEYLDAALDELNKMGGIYKYAKSHMGLTDEDIDELRELMLE”, for which the “soluble on expression in E. coli” value is recorded as “soluble”.

“SNAMFKEAINNYLHTHGYESIDLKAVLFDMDGVLFDSMPNHAESWHKIMKRFGFGLSREEAYMHEGRTGASTINIVSRRERGHDATEEEIKAIYQAKTEEFNKCPKAERMPGALEVLTKIKSEGLTPMVVTGSGQTSLLDRLNHNFPGIFQANLMVTAFDVKYGKPNPEPYLMALKKGGFKPNEALVIENAPLGVQAGVAAGIFTIAVNTGPLHDNVLLNEGANLLFHSMPDFNKNWETLQSALKQD”: the “soluble on expression in E. coli” value was “soluble”.

“MGHHHHHHSHAAMAVEPTQIQLSKRWREIESKFAQFRRLNFAQIHTVREETMMVMTEDMPLEISYVPSTYLTEITHVSQALLEVEQLLNAPDLCAKDFEDLFKQEESLKNIKDSLQQSSGRIDIIHSKKTAALQSATPVERVKLQEALSQLDFQWEKVNKMYKDRQGRFDRSVEKWRRFHYDIKIFNQWLTEAEQFLRKTQIPENWEHAKYKWYLKELQDGIGQRQTVVRTLNATGEEIIQQSSKTDASILQEKLGSLNLRWQEVCKQLSDRKKRLEEQKNILSEFQRDLNEFVLWLEEADNIASIPLEPGKEQQLKEKLEQVKLLVEELPLRQGILKQLNETGGPVLVSAPIS”: the “soluble on expression in E. coli” value is listed as “not soluble”.

In the case of “MGSDKIHHHHHHMRMERVVERVAVTGAEAVANAMRQIEPDVVAAYPITPQTPIVEYFARFVADGVVRTEMIPVESEHSAMSAVVGAAAAGARAMTATSANGLALMHEIVYIAASYRLPIVMPVVNRALSGPINIHCDHSDAMAERDSGWIQLFAETNQEAYDFTILAVRLAEHEDVRLPVMVNLDGFILSHGVEPVEFYPDELVKKFVGELKPMYPLLDTEHPVTWGPLDLYDYYFEHKRQQIEAMENVKKVFPEIAKEFEETFGRKYWFVEPYRMEDAEHVMVALGSTNSTIKYVVDELREEGYKVGSLKIWMFRPFPKEQLQELLNGRKSVVVLDRAVSFGAEAPLYEAVKSALYEVAARPMLGSYVYGLGGRDIKPEHIRKAFEDAINGNLIADEQRYLGLRE”, the “soluble on expression in E. coli” value is on record as “not soluble”.

For “GMPALITYRTTVQEDWVDYNGHLRDAFYLLIFSYATDALMDRIGLDADSRGQSGNSLFTLEAHINYLHEVKLGTEVWVQTQILGFDRKRLHVYHSLHRAGFDEVLAASEQMLLHVDLAGPQSAPFGHTTVCRLNHLVEQQEGAQAPQYMGRTIKLPA”, the “soluble on expression in E. coli” value is reported as “soluble”.

Consider “MSLNKLLSQLASVEILTPKIDDTLWFFKDILGLHEVGRKDRSVYLRGWEDWYAYSLKVTESDTAGVKEIVWRTYSEKDLIDSINIVNSNGLGLGWDEGEPDMGVGKGYKFILPSGQIGKLVWEMKIWRASGELRSGYKARPMKKPTKGVQAKDLSHIFIFAYNDESLAKTVELLKRLTFKVNEILKEGDKRIAYWMAVNGTAHDLAVSLDPSGVPARLNHVTFNVDYADDILKAADFYTDYGLEIVGGPLRHGITDSHSLYVKEPGGNVIELLHGGYLNVVPDWEPIVWDTKEDENRWLYYWGHVKEAFWHGEGHHHHHH”, for which the “soluble on expression in E. coli” value is listed as “not soluble”.

On to “GPGSMTSEEAVECTDALELVRCPSSNARVVPNRFDEEYIRGRLQEAEKIFEKAKTDVSRGLSKCEDWLGACEAFNEAGGLFASCGHPAEAARAFFHASIITRAFKDEEETTTALSLAVENMQLVEPLLAVNLMQKISETLKKGGFFFQAARCKRDSALLLEDRLGEPERAIELYREAIELYGNRSFMSSFSRGCMERITTLTVELKKYTEASKLFVEETAYAPRGRPKTRQFFLSLLCMLAEGFGDNDRYFDSLYYARKRFHALQEEERDFQHGKENRLVRKIIEANDNGSLTAFDTAVYEYRSSSTYVPDAVFENLIERCRKNLYEHLEQYI”, for which the “soluble on expression in E. coli” value is “soluble”.

For the sequence “MPKRSKEDTEITIQKIMDAVVDQLLRLGYDKMSYTTLSQQTGVSRTGISHHFPKKTDFTAALDGRIFKMFIEHLEFEKGLDAFSQSWIKALEDSEFLAILRLLFHHIVTSESAHEFAANGIDRLYKMVESQFGSGGDKELEWLIGRSLIQMSK”, the “soluble on expression in E. coli” value is on record as “not soluble”.

Regarding “MVEEQLSLSGVEEIAPKIETPKIEKRTVKERRQQVLTVLIHMLHSERGMERMTTARLAKEVGVSEAALYRYFPSKTKMFEALIEHIESTLLSRITASMRNETQTMNRIHDILQTILDFARKNPGLTRVLTGHALMFEEAQLQARVAQFFDRLEMQFVNILQMRKLREGRAFNVDERIIASHLVTLCEGQFMRYVRTNFRLNSSQSFEQQWRFIEPLFA”, the “soluble on expression in E. coli” value is on record as “not soluble”.

In the case of “MSRISSMAYKWKQPPPPINDDSRHRSQSNSRLFDRIYGQMHRGNKAFEHTTSYDESISGFMRRRFAGNGERALPLRYGTNPHQKDDAELYIVEDEMPIKVLNGSPGYINILDGLNGWQLVKELSDATKMPAAASFKHVSPAGAAVGLPLNETEAACCMVSDLPIDTKKPSLAAAYARARGADRMSSFGDFIALSEKCDELTAKIINREVSDGVVAPDFDPAALSLLAKKKNGNYCVLKINPNYLPSETEERTVFGLRLRQKRNNAVINAETFNNVVGSANELNKQAIDDLIVATIALKYAQSNSVCFAHRGQVIGMGAGQQSRIHCTRLAGDKAMNWWLRQHPTVLSLPWKNAIKRSEKSNAIDVLCSGVLGSEVCNFKFNRPLSYFSLVTNL”, the “soluble on expression in E. coli” value is given as “not soluble”.

As for “MGSDKIHHHHHHMQTLPTPTTSSNTANQSTFDTTIKRRKTRPVKVGNVTIGGGYPVVVQSMINEDTLDIDGSVAAIRRLHEIGCEIVRVTVPSIAHAVALAEIKQKLITTYQDVPIVADVHHNGMKIALEVAKHIEKVRINPGLYVFEKPNTNRTEYTQAEFEEIGEKIRETLAPLVITLRDQGKAMRIGVNHGSLAERMLFTYGDTPEGMVESALEFIRICESLDFRNIVISMKASRVPVMVAAYRLMAKRMDDLGMDYPLHLGVTEAGDGEYGRIKSTAGIATLLADGIGDTIRVSLTEAPEKEIPVCYSILQALGLRKTMVEYVACPSCGRTLFNLEEVLHKVRESTKHLTGLDIAVMGCIVNGPGEMADADYGYVGKTPGYISLYRGREEIKKVPEDKGVEELINLIKADGRWVDP”, the “soluble on expression in E. coli” value is recorded as “not soluble”.

Regarding “MPPRFNIANVLLSPDGETFFRGFRSKIHAKGSLVCTGEGDENGVFVVVDGRLRVYLVGEEREISLFYLTSGDMFCMHSGCLVEATERTEVRFADIRTFEQKLQTCPSMAWGLIAILGRALTSCMRTIEDLMFHDIKQRIAGFFIDHANTTGRQTQGGVIVSVDFTVEEIANLIGSSRQTTSTALNSLIKEGYISRQGRGHYTIPNLVRLKAAADGDRDDDDD”, the “soluble on expression in E. coli” value is “soluble”.

On to “MPNYKLTYFNMRGRAEIIRYIFAYLDIQYEDHRIEQADWPEIKSTLPFGKIPILEVDGLTLHQSLAIARYLTKNTDLAGNTEMEQCHVDAIVDTLDDFMSCFPWAEKKQDVKEQMFNELLTYNAPHLMQDLDTYLGGREWLIGNSVTWADFYWEICSTTLLVFKPDLLDNHPRLVTLRKKVQAIPAVANWIKRRPQTKL”, for which the “soluble on expression in E. coli” value was “soluble”.

Turning to “SSRERIKRELPPVQEHIDKLRKVIEEGNYYGALQMYKSISARYVTAQRFSEALDILFSGACIELEHGLVNCGADLAILFVDTLVKATSPCNDETLDRIRCIFKLFPRVPVPPHLVDVSDDEDVQNLQESLGEARSRVENLTSFLRAAIKWSAEFGGPRTGYPELHAMLGDYLYTECPELDMVRISRHFVRAEDPEKFASMLVNFMGRCYPGEDDLAIARAVLMYLSMGNMKDANFMMDEIKKQAETKNPELSESDLIQFISYLLETLQRDALPLFNMLRVKYKSSIDRDQLLNELLDEIAERFYGVQRKNPLQGMFGDIFKMMG”, the “soluble on expression in E. coli” value was “soluble”.

In the case of “MGSDKIHHHHHHASEPVSVASTPETDEIDQLFDDMQLDGIVSYTAFRQAVTGYQKIEQKSKSIMTLIDFSKPSTEKRLYVLDMKNKKLLYTSVVSHGKNSGGNYATSFSNKNGSYKSSLGFYLTENTYQGRNGYSLVLNGLEKGINDQAKQRAIVMHGAAYANPNITASAGRLGRSLGCPALPQALAKPIIDTIKKGSVLFIYANNKDYLANSTFLSPRQTEYLSWAQPAN”, the “soluble on expression in E. coli” value is “not soluble”.

Take “MSLNQPLLSVNNLTHLYAPGKGFSDVSFDLWPGEVLGIVGESGSGKTTLLKSISARLTPQQGEIHYENRSLYAMSEADRRRLLRTEWGVVHQHPLDGLRRQVSAGGNIGERLMATGARHYGDIRATAQKWLEEVEIPANRIDDLPTTFSGGMQQRLQIARNLVTHPKLVFMDEPTGGLDVSVQARLLDLLRGLVVELNLAVVIVTHDLGVARLLADRLLVMKQGQVVESGLTDRVLDDPHHPYTQLLVSSVLEGHHHHHH”: the “soluble on expression in E. coli” value is listed as “soluble”.

Turning to “SLINNLSTHSYWPNRGQLEVQGLTVKYTEAGRAVLNDISFSVDGGQSVGLLGRTGSGKSTLLSALLGLNYTEGEMFIDGVSSSSMPLQAWRKAFGVVPQKVFILTGTFRMNLDPYGRYSDDELWRVAEEVGLKSVIEQFPDKLDFELKDGGSVLSNGHKQLMCLARSILSKARILLLDEPSSYLDPITLQVLRKTLKQSFSGCTVILSEAKVEPLLECDSFLMIEKSSVKSYDSIQKLMNEMSHLKQAISPAD”, the “soluble on expression in E. coli” value was “soluble”.

Regarding “MQIVTDKNKVALYYKDIAVTYKEFILNTKKIKQFTKIKEFTNNMIYMENRPELLYSFFAIWDSRATCVCIDASSTAVELTYYIDNSDVVKIFTTKMQVEKVKGALSILSKQIEIIVVDEINLSEIKIDENSSENLVINSPEKEDTALILYTSGTTGKPKGVMLTFDLEHHHHHH”, the “soluble on expression in E. coli” value was “not soluble”.

The record behind these values is the DeepSol protein solubility set.
